In article PMC11309785:

B1: RM_N332_08 Fab (Fab, V domains shown)
VH: QVQLVQSGAEVKKPGSSVKVSCKASGYTFTDHYIHWVRQAPRQGLEWMGWINPYNGNTNYAQKFQGRVTLTRDTSTTTVYMELISLRSEDTAVYYCARGGEYCTGFGCFAGKGDNSLDVWGRGVLVSVSS
VL: DIVMIQTPLSLPVTPGEPASISCRSSQSLFDIEDETTYLEWFLQKPGQSPQPLIYEVSNRASGVPDRFSGSGSDTAFTLKISRVEAEDVGIYYCMQGIEYPFTFGPGTKVEIK
B2: RM_N332_07 Fab (Fab, V domains shown)
VH: QVQLQESGPGLVKPSETLSLTCAVSGASFSSFWWDWIRQPPGRGLEWIGDINGNSGSTNYNPSLKSRVTISKDASKSQFSLKLTSVTAADTAVYYCALQSVTYYEDDSGHYETEMAKFWGQGVLVTVSS
VL: QPVLTQPPSVSGAPGQRVTISCSGSSSNIGGYHVQWYQQLPGTAPKLLIYESNKRPSGISDRFSASQFGTSASLTITGLQSEDEADYYCQSYDSSVSAQVFGGGTRLTVL

Biological target: BG505_B23 trimer, His-tagged (HIV-1 isolate BG505)
Test: SPR; ProteOn XPR36, HC30M XanTec chip; His-tagged trimer (300 to 400 RU, 1 ug/mL) captured by immobilised rabbit anti-His-tag pAb, Fab flowed as analyte at 30 ul/min for 3 min, 5 min dissociation; 1x HBS-EP+ pH 7.4 with BSA 1 mg/ml; equilibrium or kinetic (Langmuir) fits; highest concentration 2x10^-5 M, approximate upper affinity limit 1.6x10^-11 M

Row | Binder | Kd
1 | B1 | < 100 nM
2 | B2 | < 100 nM
